Measurements: publication PMC8944867

Molecular target: HOIP UBA-RBR-LDD/HOIL-1L UBL complex (human) (UniProt Q96EP0)
Assay: ITC

HOIP UBA-RBR-LDD/HOIL-1L UBL complex (human), sequence (Q96EP0 whole entry, chain 1 of 2): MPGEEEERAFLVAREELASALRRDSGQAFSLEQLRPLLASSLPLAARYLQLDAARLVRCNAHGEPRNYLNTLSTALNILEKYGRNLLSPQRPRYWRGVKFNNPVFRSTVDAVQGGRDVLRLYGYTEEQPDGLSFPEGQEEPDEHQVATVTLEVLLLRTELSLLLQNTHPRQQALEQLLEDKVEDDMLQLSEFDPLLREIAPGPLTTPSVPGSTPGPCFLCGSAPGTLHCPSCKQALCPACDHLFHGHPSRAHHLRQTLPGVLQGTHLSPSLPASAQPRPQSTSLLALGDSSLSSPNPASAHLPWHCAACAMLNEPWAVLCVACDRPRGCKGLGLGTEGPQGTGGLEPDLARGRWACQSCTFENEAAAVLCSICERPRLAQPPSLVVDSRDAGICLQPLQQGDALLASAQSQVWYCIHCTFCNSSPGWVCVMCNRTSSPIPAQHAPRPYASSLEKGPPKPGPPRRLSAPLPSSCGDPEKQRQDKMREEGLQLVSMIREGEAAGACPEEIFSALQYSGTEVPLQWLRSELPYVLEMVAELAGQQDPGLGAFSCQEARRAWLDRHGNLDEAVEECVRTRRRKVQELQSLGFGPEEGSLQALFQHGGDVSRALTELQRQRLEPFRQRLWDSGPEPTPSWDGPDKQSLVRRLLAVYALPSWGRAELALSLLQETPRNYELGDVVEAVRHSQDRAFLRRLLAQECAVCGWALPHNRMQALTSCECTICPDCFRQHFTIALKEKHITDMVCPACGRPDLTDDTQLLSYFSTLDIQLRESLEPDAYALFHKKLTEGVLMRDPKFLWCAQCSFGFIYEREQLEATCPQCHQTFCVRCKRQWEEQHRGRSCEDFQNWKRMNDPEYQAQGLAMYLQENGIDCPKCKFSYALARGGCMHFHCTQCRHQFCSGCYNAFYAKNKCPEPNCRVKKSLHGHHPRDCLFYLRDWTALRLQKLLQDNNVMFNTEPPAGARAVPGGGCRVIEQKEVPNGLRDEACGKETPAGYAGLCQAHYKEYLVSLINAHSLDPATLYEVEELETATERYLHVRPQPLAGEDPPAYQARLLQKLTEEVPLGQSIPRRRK
HOIP UBA-RBR-LDD/HOIL-1L UBL complex (human), sequence (Q9BYM8 53-135, chain 2 of 2, further chain): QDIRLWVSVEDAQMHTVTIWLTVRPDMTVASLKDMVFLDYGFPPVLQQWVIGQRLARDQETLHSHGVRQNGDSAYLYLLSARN

IpaH1.4 LRR domain (from UniProt A0A0H2USG1 38-283) (domain or fragment)
Kd: 2.3 µM
